Measured values: patent US20140329275A1, “BIOCATALYSIS CELLS AND METHODS” (REGENTS OF THE UNIVERSITY OF MINNESOTA, priority 2011, published 2014)

Substrate: CC(C)CC=O
Test: Enzymatic assay of PadA
Type: biochemical, E. coli
Details: other: 0.5 mM NAD+, pH 8.0, 25 nM PadA
Protocol: Protein concentration was measured by UV absorbance at 280 nm. […] Enzymatic reactions were initiated by adding 25 nM PadA. The reactions were monitored by measuring the UV absorbance at 340 nm (extinction coefficient, 6.22 mM^−1 cm^−1) as a consequence of NADH generation.

B1: PadA (Escherichia coli K-12) (protein)
chain: MTEPHVAVLSQVQQFLDRQHGLYIDGRPGPAQSEKRLAIFDPATGQEIASTADANEADVDNAVMSAWRAFVSRRWAGRLPAERERILLRFADLVEQHSEELAQLETLEQGKSIAISRAFEVGCTLNWMRYTAGLTTKIAGKTLDLSIPLPQGARYQAWTRKEPVGVVAGIVPWNFPLMIGMWKVMPALAAGCSIVIKPSETTPLTMLRVAELASEAGIPDGVFNVVTGSGAVCGAALTSHPHVAKISFTGSTATGKGIARTAADHLTRVTLELGGKNPAIVLKDADPQWVIEGLMTGSFLNQGQVCAASSRIYIEAPLFDTLVSGFEQAVKSLQVGPGMSPVAQINPLVSRAHCDKVCSFLDDAQAQQAELIRGSNGPAGEGYYVAPTLVVNPDAKLRLTREEVFGPVVNLVRVADGEEALQLANDTEYGLTASVWTQNLSQALEYSDRLQAGTVWVNSHTLIDANLPFGGMKQSGTGRDFGPDWLDGWCETKSVCVRY
notes: made in house
In the case of B1, the Km is reported as 1946 µM and the kcat is reported as 18.6 s⁻¹.
